In patent US20140030216:

Assays:
[1] = molecular target: T1, recombinant rhIFNAR1 (≈110 kD), P17181
T1 chain: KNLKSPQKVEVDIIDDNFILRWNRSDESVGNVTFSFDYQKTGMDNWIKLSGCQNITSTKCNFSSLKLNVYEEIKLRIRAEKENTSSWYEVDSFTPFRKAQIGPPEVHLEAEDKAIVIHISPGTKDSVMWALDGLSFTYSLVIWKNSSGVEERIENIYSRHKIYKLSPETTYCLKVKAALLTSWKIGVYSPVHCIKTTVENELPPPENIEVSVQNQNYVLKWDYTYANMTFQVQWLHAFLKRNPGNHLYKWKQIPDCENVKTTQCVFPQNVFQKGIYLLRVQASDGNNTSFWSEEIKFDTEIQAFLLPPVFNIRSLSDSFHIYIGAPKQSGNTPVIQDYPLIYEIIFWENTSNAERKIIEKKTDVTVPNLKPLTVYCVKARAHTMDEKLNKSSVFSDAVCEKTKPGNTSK

Chain of rhMCP-3, P80098 (P80098 24-99): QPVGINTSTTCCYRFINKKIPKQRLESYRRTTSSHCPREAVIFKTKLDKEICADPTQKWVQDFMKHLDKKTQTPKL

B1: Purified human MMP-2 (mixture of the proenzyme (50%) and the active form (50%)) (protein)
chain: YNFFPRKPKWDKNQITYRIIGYTPDLDPETVDDAFARAFQVWSDVTPLRFSRIHDGEADIMINFGRWEHGDGYPFDGKDGLLAHAFAPGTGVGGDSHFDDDELWTLGEGQVVRVKYGNADGEYCKFPFLFNGKEYNSCTDTGRSDGFLWCSTTYNFEKDGKYGFCPHEALFTMGGNAEGQPCKFPFRFQGTSYDSCTTEGRTDGYRWCGTTEDYDRDKKYGFCPETAMSTVGGNSEGAPCVFPFTFLGNKYESCTSAGRSDGKMWCATTANYDDDRKWGFCPDQGYSLFLVAAHEFGHAMGLEHSQDPGALMAPIYTYTKNFRLSQDDIKGIQELYGASPDIDLGTGPTPTLGPVTPEICKQDIVFDGIAQIRGEIFFFKDRFIWRTVTPRDKPMGPLLVATFWPELPEKIDAVYEAPQEEKAVFFAGNEYWIYSASTLERGYPKPLTSLGLPPDVQRVDAAFNWSKNKKTYIFAGDKFWRYNEVKKKMDPGFPKLIADAWNAIPDNLDAVVDLQGGGHSYFFKGAYYLKLENQSLKSVKFGSIKSDWLGC
- degradation of rhIFNAR1 after overnight incubation with MMP-2 (Western blot) [1]: recombinant rhIFNAR1 (≈110 kD) incubated overnight with active MMP-2 was degraded by MMP-2
- MCP-3 degradation (MCP-3 content by ELISA after overnight incubation) (rhMCP-3, P80098): MMP-2 activity was controlled by measuring its capacity to degrade MCP-3
